In US20090305241, “DNA demethylases and uses thereof” (REGENTS OF THE UNIVERSITY OF CALIFORNIA, published 2009):

Target: T1, DME (MBP-Δ537DME, wild-type glycosylase domain) (UniProt Q8LK56)
T1 sequence: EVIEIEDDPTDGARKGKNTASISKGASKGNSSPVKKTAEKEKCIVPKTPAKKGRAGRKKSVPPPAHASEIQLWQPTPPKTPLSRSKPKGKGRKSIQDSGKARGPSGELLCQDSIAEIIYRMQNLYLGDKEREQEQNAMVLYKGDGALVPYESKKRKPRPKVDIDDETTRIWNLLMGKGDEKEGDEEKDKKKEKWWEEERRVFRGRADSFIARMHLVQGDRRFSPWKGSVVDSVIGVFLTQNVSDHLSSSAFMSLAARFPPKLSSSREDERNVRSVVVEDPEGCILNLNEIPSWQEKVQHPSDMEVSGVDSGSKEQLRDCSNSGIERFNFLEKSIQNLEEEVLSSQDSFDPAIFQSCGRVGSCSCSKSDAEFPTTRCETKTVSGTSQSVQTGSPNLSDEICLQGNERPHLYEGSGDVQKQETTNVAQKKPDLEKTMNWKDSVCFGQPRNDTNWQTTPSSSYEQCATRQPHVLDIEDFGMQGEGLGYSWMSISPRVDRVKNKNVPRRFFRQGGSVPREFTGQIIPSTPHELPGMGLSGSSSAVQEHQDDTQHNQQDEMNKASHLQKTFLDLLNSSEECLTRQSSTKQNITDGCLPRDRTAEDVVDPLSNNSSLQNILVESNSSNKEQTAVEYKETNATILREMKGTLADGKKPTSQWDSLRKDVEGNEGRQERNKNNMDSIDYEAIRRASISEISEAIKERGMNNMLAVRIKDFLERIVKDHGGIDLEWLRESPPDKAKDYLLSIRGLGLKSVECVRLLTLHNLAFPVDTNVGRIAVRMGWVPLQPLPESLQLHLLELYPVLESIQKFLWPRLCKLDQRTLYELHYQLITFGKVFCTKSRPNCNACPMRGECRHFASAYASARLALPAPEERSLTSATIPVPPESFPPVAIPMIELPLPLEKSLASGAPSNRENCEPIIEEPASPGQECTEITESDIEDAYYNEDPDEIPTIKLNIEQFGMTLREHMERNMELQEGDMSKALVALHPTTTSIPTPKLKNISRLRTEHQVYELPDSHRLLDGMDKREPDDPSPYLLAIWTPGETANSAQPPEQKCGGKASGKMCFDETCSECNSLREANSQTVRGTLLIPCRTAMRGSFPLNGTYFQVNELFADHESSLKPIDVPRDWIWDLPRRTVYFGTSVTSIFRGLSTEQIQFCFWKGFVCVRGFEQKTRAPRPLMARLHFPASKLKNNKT
Assay: cleavage_in_vitro
Settings: abasic at top position 18; 5mC at bottom position 19; rate reduced approximately 10-fold

With “CTATACCTCCTCAACTCABAICGGTCACCGTCTCCGGCG / CGCCGGAGACGGTGACNGGAGTTGAGGAGGTATAG [abasic 18 opposite meC (MEA-1.6F18AP / MEA-1.6R17meC)]” the relative cleavage rate (fold rate vs hemimethylated) was 0.1.
